One test deals with T1, Peptide 17 (peanut).
T1 construct: also called linear Ara h 2 peptide 17
T1 peptide: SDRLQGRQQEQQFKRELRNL
Kind of test: competition ELISA, peptide in solution vs coated Ara h 2. On the procedure: (§1) A competition ELISA was used to evaluate binding of exemplary anti-peanut antibodies of the present invention to linear Ara h 2 epitopes. Serial dilutions of linear Ara h 2 epitopes (100 μM down to 0.19 nM; peptides with a length of 20 amino acids and an overlap of 12 amino acids between the peptides) were pre-incubated with exemplary anti-peanut antibodies ([…]) for 1 hour at room temperature. The pre-incubated antibody-epitope mixtures were subsequently incubated on plates coated with full length Ara h 2 (coating overnight at 4° C. with 0.05 μg/ml Ara h 2 in PBS, followed by wash out and blocking with 2% BSA in PBS). The plates were subsequently washed and binding of MAbs to Ara h 2 was detected HRP-conjugated goat anti human Fc-gamma-specific antibody (Jackson ImmunoResearch, West Grove, Pa., USA) followed by measurement of the HRP activity using a tetramethylbenzidine substrate solution (TMB, Sigma-Aldrich Chemie GmbH, Buchs, Switzerland). As may be seen from Table 5, exemplary anti-peanut allergen antibody 32B10 binds to different linear Ara h 2 epitopes than 12G10 and 37D5.

For a further test, the target named is T2, Peptide 19 (peanut).
T2 construct: also called linear Ara h 2 peptide 19
T2 peptide: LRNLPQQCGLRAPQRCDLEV
The test is described as above. On the procedure: as §1

For a further test, the target named is T3, Peptide 6 (peanut).
T3 construct: also called linear Ara h 2 peptide 6
T3 peptide: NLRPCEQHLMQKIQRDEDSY
The test is described as above. On the procedure:
as §1

For a further test, the target named is T4, Peptide 4 (peanut).
T4 construct: also called linear Ara h 2 peptide 4
T4 peptide: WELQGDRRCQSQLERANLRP
The description is as above. On the procedure:
as §1

The next test deals with T5, Peptide 14 (peanut).
T5 construct: also called linear Ara h 2 peptide 14
T5 peptide: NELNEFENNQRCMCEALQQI
The description is as above. On the procedure: as §1

Another test addresses T6, Peptide 15 (peanut).
T6 construct: also called linear Ara h 2 peptide 15
T6 peptide: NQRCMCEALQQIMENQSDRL
The description is as above. On the procedure:
as §1

In another test the target is T7, Peptide 1 (peanut).
T7 construct: 20-mer of Ara h 2, overlap of 12 with its neighbours; also called linear Ara h 2 peptide 1
T7 peptide: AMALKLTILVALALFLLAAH
Described as above. On the procedure:
as §1

The target in another test is T8, Peptide 3 (peanut).
T8 construct: also called linear Ara h 2 peptide 3
T8 peptide: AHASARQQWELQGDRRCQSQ
The test is described as above. On the procedure: as §1

Another test has as its target T9, Peptide 16 (peanut).
T9 construct: also called linear Ara h 2 peptide 16
T9 peptide: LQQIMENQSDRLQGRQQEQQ
The description is as above. On the procedure: as §1

The target in the next test is T10, nAra h 2 (peanut, UniProt Q6PSU2 22-172).
T10 construct: Bought natural allergen; also called naturally extracted Ara h 2
T10 sequence (looked up): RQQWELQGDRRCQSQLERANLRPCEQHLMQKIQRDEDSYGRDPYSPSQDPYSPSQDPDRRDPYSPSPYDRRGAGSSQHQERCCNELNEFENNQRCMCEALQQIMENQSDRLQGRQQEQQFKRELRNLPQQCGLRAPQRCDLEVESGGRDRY
Kind of test: ELISA, antigen-coated plate. On the procedure:
(§2) EC50 binding of exemplary anti-peanut antibodies of the present invention to peanut allergens or peanut extract, was determined by ELISA. Serial dilutions of MAbs (from 1000 ng/ml down to 0.0169 ng/ml) were incubated for 2 hours with antigen-coated plates (coating overnight at 4° C. or 1 h at 37° C. with 1 μg/ml antigen in PBS, followed by wash out and blocking with 2% BSA in PBS). The plates were subsequently washed and binding of MAbs was detected with anti-human HRP-conjugated Fc-gamma-specific secondary antibody (Jackson ImmunoResearch, West Grove, Pa., USA). Concentrations of MAb resulting in half of maximal binding to respective antigens (EC50, ng/ml) were calculated using GraphPad Prism 5 software on sigmoidal dose-response curves (variable slope, 4 parameters) obtained by plotting the log of the concentration versus OD450 nm measurements; for the results see FIG. 3 and table 2.
In general terms: An ELISA detects its analyte on a solid surface through an enzyme-linked reagent.

The target in the next test is T11, nBet v 1 (UniProt P15494 2-160).
T11 sequence (looked up): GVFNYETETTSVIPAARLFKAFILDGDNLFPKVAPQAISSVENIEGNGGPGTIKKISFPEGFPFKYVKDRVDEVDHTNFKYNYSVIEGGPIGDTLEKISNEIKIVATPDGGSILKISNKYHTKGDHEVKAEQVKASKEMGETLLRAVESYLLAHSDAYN
Kind of test: ELISA, antigen-coated plate. On the procedure:
as §2

The next test concerns the target T12, nAra h 1 (peanut, UniProt P43238 85-626).
T12 construct: Bought natural allergen; also called naturally extracted Ara h 1
T12 sequence (looked up): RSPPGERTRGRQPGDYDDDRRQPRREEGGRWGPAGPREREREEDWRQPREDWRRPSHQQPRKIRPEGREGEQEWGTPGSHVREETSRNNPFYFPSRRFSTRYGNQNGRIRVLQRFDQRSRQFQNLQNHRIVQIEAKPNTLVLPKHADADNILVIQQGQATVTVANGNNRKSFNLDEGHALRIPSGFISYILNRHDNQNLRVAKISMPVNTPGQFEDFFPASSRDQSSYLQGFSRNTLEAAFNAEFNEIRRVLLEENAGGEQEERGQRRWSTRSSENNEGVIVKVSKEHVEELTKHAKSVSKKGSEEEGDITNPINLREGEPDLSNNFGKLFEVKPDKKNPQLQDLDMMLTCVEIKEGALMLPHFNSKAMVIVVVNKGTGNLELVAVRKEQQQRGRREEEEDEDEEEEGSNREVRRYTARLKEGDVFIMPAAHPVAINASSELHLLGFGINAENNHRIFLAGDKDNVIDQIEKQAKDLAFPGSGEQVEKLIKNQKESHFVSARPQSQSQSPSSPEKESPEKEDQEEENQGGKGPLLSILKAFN
Put plainly: ELISA, antigen-coated plate. On the procedure: as §2

Another test addresses T13, nAra h 6 (peanut, UniProt Q647G9 22-145).
T13 construct: Bought natural allergen; also called naturally extracted Ara h 6
T13 sequence (looked up): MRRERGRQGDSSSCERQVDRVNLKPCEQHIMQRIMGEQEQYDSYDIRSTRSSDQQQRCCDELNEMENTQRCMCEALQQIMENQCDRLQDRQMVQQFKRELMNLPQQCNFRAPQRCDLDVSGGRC
Put plainly: ELISA, antigen-coated plate. On the procedure: as §2

B1: h32B10 (antibody, V domains shown)
VH: QVQLVQSGAEVKKPGASVKVSCRASGYIFRNFDINWVRQATGQGLEWMGWMSPKSGDTGYAQKFQGRVTMTRDTSINTAYMELSSLTSEDSAVYYCARGVDGTNWGQGTRVTVSS
VL: DIVMTQSPDSLGVSLGERATISCKSSQSILDNSNNKNFIAWFQQKPGQPPKLLIYWASARESGVPDRFSGSGSGTEFTLTINSLQAEDVAVYYCYQYYSTPHTFGQGTKLDLR
notes: Recombinant human IgG; also called hMAb 32B10
Usually EC50 stands for the concentration that produces a half-maximal response. A lower EC50 goes with an effect from little substance. As for B1, the binding result with Peptide 17 is recorded as “no binding (tested: 100 µM)”; in the test with Peptide 19 it was “no binding (tested: 100 µM)”; with Peptide 6, “no binding (tested: 100 µM)”; with Peptide 4, “binds”; with Peptide 14, “no binding (tested: 100 µM)”; with Peptide 15, “no binding (tested: 100 µM)”. Besides, the binding result is reported as “no binding (tested: 100 µM)” with Peptide 1, “no binding (tested: 100 µM)” in the test with Peptide 3, “no binding (tested: 100 µM)” in the test with Peptide 16 and “no binding (tested: 1000 ng/ml)” in the test with nBet v 1. In addition, the results for the EC50 with nAra h 2, with nAra h 1 and with nAra h 6 were 9.2 ng/mL, 8.8 ng/mL and 7 ng/mL, respectively.

B2: h4B2 (antibody, V domains shown)
VH: QVQLQEAGPRLVKPSQTLSVTCTVSGASITIGGYYWSWIRQHPGKGLEWMGYIYSNGRTYYNPSLKSRIAMSIDTSKNQFSLKLTSVTAADTAIYFCAREAWETPLWGQGTLITVSS
VL: DIQMTQSPSSLSASVGDRVTITCQANQDIVNSLNWFQHKPGTAPKVLIYDASKLETGVPSRFSGSGSGTHFTFTISGLQPEDFATYFCQQYENLPHTFGQGTKLEIR
notes: Recombinant human IgG; also called hMAb 4B2
In the case of B2, the binding result in the test with Peptide 17, with Peptide 19, in the test with Peptide 6, with Peptide 4, with Peptide 14 and with Peptide 15 was “no binding (tested: 100 µM)” each time. For the same molecule, the binding result with Peptide 1 is on record as “no binding (tested: 100 µM)”; in the test with Peptide 3, “no binding (tested: 100 µM)”; with Peptide 16 it was “no binding (tested: 100 µM)”; with nBet v 1 it was “no binding (tested: 1000 ng/ml)”. The EC50 with nAra h 2 was 6.7 ng/mL; in the test with nAra h 1, 5.9 ng/mL; with nAra h 6 it was 7 ng/mL.

B3: h12G10 (antibody, human IgG1, V domains shown)
VH: EVQLLESGGRLLRPGGSLSLSCVASGFYFGDFGMSWVRQVPGKGLEWVSGIDWSGRSTGYVDSMKGRLTISRDNDKSSLYLQMNDLRGEDTAVYYCARVGRLCSGDSCDSMGAFDLWGQGTMVTVSS
VL: DIQLTQSPSTLSASIGDSVTITCRASQNIDNWLAWYQQKPGKAPRLLIYKASSLGSGVSSKFRGSGFGTEFTLTITSLQPDDFATYYCQKSNGYSRTFGQGTKVDIK
notes: Recombinant human IgG; also called hMAb 12G10
For B3, the binding result with Peptide 17, in the test with Peptide 19, with Peptide 6, in the test with Peptide 4, in the test with Peptide 14 and with Peptide 15 was “no binding (tested: 100 µM)” each time. Besides, the binding result is “no binding (tested: 100 µM)” in the test with Peptide 1, “no binding (tested: 100 µM)” with Peptide 3, “no binding (tested: 100 µM)” with Peptide 16 and “no binding (tested: 1000 ng/ml)” in the test with nBet v 1. The 50% effective concentration (EC50) is 6.8 ng/mL with nAra h 2, 242 ng/mL in the test with nAra h 1 and 17.2 ng/mL in the test with nAra h 6.

B4: h37D5 (antibody, V domains shown)
VH: EEQLVESGGRLLRPGESLSLSCAAVGFNFGDFGMAWVRQPPGKGLEWVAGINWSGHSTGFVDSMKGRLTISRDSAKSSLFLQMNSLRGEDTAVYYCARVGRLCSGDICDSMGAFDLWGQGTMVTVSS
VL: DIQMTQSPSTLSASIGDRVTITCRASQTIDNWLAWYQQRPGKAPKLLIYQASSLQSGVSSRFRGSGSGTEFTLTITSLQPDDFATYYCQKSNGYSRTFGQGTKVEIK
notes: Recombinant human IgG; also called hMAb 37D5
Turning to B4, the binding result with Peptide 17, with Peptide 19, with Peptide 6, in the test with Peptide 4, with Peptide 14 and in the test with Peptide 15 was “no binding (tested: 100 µM)” in each case. In addition, the binding result was “no binding (tested: 100 µM)” with Peptide 1, “no binding (tested: 100 µM)” in the test with Peptide 3, “no binding (tested: 100 µM)” with Peptide 16 and “no binding (tested: 1000 ng/ml)” in the test with nBet v 1. Moreover, the figures for the EC50 with nAra h 2, in the test with nAra h 1 and with nAra h 6 were 5.6 ng/mL, 264 ng/mL and 22.1 ng/mL, respectively.

The values above are taken from patent publication US20200199207A1 (MABYLON, published 2020).
